Assay: yeast display, Sf9 membrane polyspecificity reagent, FACS + sequencing; frameworks hold sequencing errors
Procedure, shortened: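 Galactose-induced (36–48 hours) yeast carrying a synthetic nanobody display library were exposed to 10% biotinylated, detergent-solubilized Sf9 membrane reagent at 4 °C for 1 hour. FACS followed streptavidin microbead enrichment, using low and high (top ~1%) gates for expression (anti-HA) and reagent binding (streptavidin). Colony PCR, MiSeq 2 × 250 sequencing and CDR-length filtering followed. Labels for polyreactivity reflect the gate of origin.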

Sequence	polyreactivity (PSR sort gate)
QVQLVESGGGLVQAGGSLRLSCAASGFTYKYYAMGWYRQAPGKERELVAAITRGGDTYYADSVKGRFSISRDNAKNTVYLQMNSLKPEDTAVYYCNTASDKRAFDYWGQGTQVTVSS	low polyreactivity
QVQLVESGGGLVQAGGSLRLSCAASGFYNTMGWYRQAPGKERELVAAISTGGITNYADSVKGRFTISRDNAKNTVYVLMNSLKPEDTAVYYCPADGYSTVSSSYAYWGQGTQVTVSS	low polyreactivity
QVQLVESGGGLVQAGGSLRLSCAASGFYYYAMGWYRQAPGKERELVAVITYSGGSTYYADSVKGRFTISRDNAKNTVYLQMNSVKPEDTAVYYCAADYRPGYDYWGQGTQVTVSS	low polyreactivity
QVQLVESGGGLVQAGGSLRLSCAASGGAFRYYTMGWYRPAPGKDRELVASISGGGRTYYADSVKGRFTISRDNAKNSVYLQMNSLKPEDTAVYYCNARNRVYYTMSGFGYLGQGTQVTVSS	high polyreactivity
QVQLVESGGGLVQAGGSLRLSCAASGGICRVYAMGWYRQAPGKERELVAAISRSGSSTYYADSVKGRFTISRDNAKNTVYLQMNSLKPEDTAVYYCNAYSQYWLGNNYWGQGTQVTVSS	high polyreactivity
QVQLVESGGGLVQAGGSLRLSCAASGGIFAPYAMGWYRQAPGKERELVATISFSGGSTYYADSVKGRFTISRDNAKNTVYLQMNSLKPEDTAVYYCAKRYIYSLLYGLDYWGQGTQVTVSS	low polyreactivity
QVQLVESGGGLVQAGGSLRLSCAASGGIFASNAMGWYRQAPGKERELVATITRGGSTNYADSVKGRFTISRDNAKNTVYLQMNSLKPEDTAVYYCAARFYSRAFWTAYYYWGQGTQVTVSS	high polyreactivity
QVQLVESGGGLVQAGGSLRLSCAASGGIFAYYAMGWYRQAPGKERELVAAITSRGGRTYYADSVKGRFTISRDNAKNTVYLQMNSLKPEDTAVYYCAAEYINSNYQWYYYWGQGTQVTVSS	high polyreactivity
QVQLVESGGGLVQAGGSLRLSCAASGGIFDRYAMGWSRQAPGKERELVAVISGSVNTYADSVKGRFTISRDNAKNTFYLQMNSLKPEDTAVYYCATQFEGTSGFNYWGQGTQVTVSS	low polyreactivity
QVQLVESGGGLVQAGGSLRLSCAASGGIFFPNAIGWYRQAPGKERELVAAISWSAGSTYYADSVKGRFTISRDNAKNTVYLQMNSLKPEDTAVYYCAAAGSNYTVWYGYYYWGQGTQVTVSS	low polyreactivity
QVQLVESGGGLVQAGGSLRLSCAASGGIFFYYVMGWYRQAPGKERELVAAITSGGSTYYADSVKGRFTISRDNAKNTVYLQMNSLKPEDTAVYSCNGRDVVDYSVWSRYAYDYWGQGTQVTVSS	low polyreactivity
QVQLVESGGGLVQAGGSLRLSCAASGGIFGANAMGWYRQAPGKERELVAAITWRGGSTYYADSVKGRFTISRDNAKNTVYLQMNSLKPEDTAVYYCAKSFVRYKGRYYWGQGTQVTVSS	high polyreactivity
QVQLVESGGGLVQAGGSLRLSCAASGGIFGAYAMGWYRQAPGKERELVAASDLTDGDTYYADSVKGRFTSSRDNAKNTVYLQMNSLKPEATAVYYCAAEALYWVVDALDYEGDYWGQGTQVTVSS	high polyreactivity
QVQLVESGGGLVQAGGSLRLSCAASGGIFGYYVMGWYRQAPGKERELVAVITRGGSTNYADSVKGRFTISRDNAKNTVYLQMNSLKPEDTAVYYFAKDVPYRRVRSEYWGQGTQVTVSS	low polyreactivity
QVQLVESGGGLVQAGGSLRLSCAASGGIFHGYVMGWYRQEPGKERELVASIRTRGVRTYYADSVKGRFTISRDNAKNTVYLQMNSLKPEDTAVYYCNARGQVYSTLSSYRYDYWGQGTQVTVSS	high polyreactivity
QVQLVESGGGLVQAGGSLRLSCAASGGIFIVNAMGWYRPAPGKERELVAAITLSGGSTYYADSVKGRFTISRDNAKNTVYFQMNSLKPEDTAVYYCNKDYYPGSYDYWGQGTQVTVSS	low polyreactivity
QVQLVESGGGLVQAGGSLRLSCAASGGIFKRNTMGWYRQAPGKERELVAGISWTGGRTYYADSVKGRFTISSDNAKNNVYLPPNSLKPEDTAVYYCAAKPLQGVRRVEYWGQGTQVTVSS	high polyreactivity
QVQLVESGGGLVQAGGSLRLSCAASGGIFLYNAMGWYRQAPGKERELVAAISRSGGGTYYADSVKGRFTISRDNAKNTVYLQMNSLKPEDTAVYYCAKTLRAYSDYYYWGQGTQVTVSS	high polyreactivity
QVQLVESGGGLVQAGGSLRLSCAASGGIFNSYTMGWYRQAPGKERELVAAITKRGGSTYYADSVKGRFTISRYNAKNTVYLQMNSLKPEDTAVYYCAAGATVQFDYWGQGTQVTVSS	high polyreactivity
QVQLVESGGGLVQAGGSLRLSCAASGGIFPLYAMGWYRQAPGKERELVASITSGGSTYYADSVKGRFTISRDNAKNTVYLQMNSLKPEDTAVYYCAADLRITSYNSWGQGSQVTVSS	low polyreactivity
QVQLVESGGGLVQAGGSLRLSCAASGGIFPYYAMGWYRQAPGKERELVADISSGGSTYYADSVKGRFTISRDNAKNSVYLQMNSLKPDDTAVYYCAADAGQYFTYSGDDNHDYWGQGTQVTVSS	low polyreactivity
QVQLVESGGGLVQAGGSLRLSCAASGGIFQGYTMGWYRQAPGKERELVAAISRRGGSTYYADSVKGRFTNSRDNAKNTVYLQMNSVKPEDTAVYYCAAGKPLQLPRYDYWGQGTQVTVSS	low polyreactivity
QVQLVESGGGLVQAGGSLRLSCAASGGIFRDYAMGWSRQAPGKERELVAAISRSGDSTYYADSVKGRFTISRDNAKNTVYLQMNSLKPEDTAVYSCAADWLWAWHYYGAMDYWGQGTQVTVSS	high polyreactivity
QVQLVESGGGLVQAGGSLRLSCAASGGIFRKNAMGWYRQAPGKERELVAAISWDGDNTYADSVKGRFTISRDNAKNTVYLQMNSLKPEDTAVYYCAAETFTDYDYWGQGTQVTVSS	high polyreactivity
QVQLVESGGGLVQAGGSLRLSCAASGGIFRKYVMGWYRQAPGKERELVAAISTSGGSTYYADSVKGRFTISRDNAKNSVYLQMNSLKPEDTAVYYCAADILYFYGPRVFEFNYWGQGTQVTVSS	high polyreactivity
QVQLVESGGGLVQAGGSLRLSCAASGGIFRWYAMGWYRQAPGKEREFVAVITTDGGSTYYADSVKGRFTISRDNAKNTVYLQMNSLKPEDTAVYYCAADYTLIYDYWGQGTQVTVSS	low polyreactivity
QVQLVESGGGLVQAGGSLRLSCAASGGIFSLYAMGWYRQAPGKERELVAAISRRGTITYYADSVKGRFTISRDNAMNTVYLQMNSLKPEDTAVYYCAALWHAVFYADYDYWGQGTQVTVSS	high polyreactivity
QVQLVESGGGLVQAGGSLRLSCAASGGIFSRNAMGWYRQAPGKERELVADISRTGDSTYYADSVKGRFTISRDNAKNTVYLQMNSLKPEDTAVYYCNRDAFVGDRTVRVTTTNWGQGTQVTVSS	low polyreactivity
QVQLVESGGGLVQAGGSLRLSCAASGGIFSRYAMGWYRQAPGKEREFVAAISFSGASTYYTDSVKGRFTISRDTAKNTVYLQMNSLKPEDTAVYYCAAYWDAEGRRYTRLDYWGQGTQVTVSS	low polyreactivity
QVQLVESGGGLVQAGGSLRLSCAASGGIFSRYGLGWYRQAPGKERELVAAITGRGGSTYYADSVKGRFTISRDNAKNTVYLQMNSLKPEDTAVDYCAAKVRSLNWFDYWGQGTQVTVSS	high polyreactivity

Reference: the nanobody polyreactivity screen of Harvey et al. (2022)
